According to patent US8273342B2, “Anti-virus therapy for respiratory diseases” (University of Southampton, priority 2004, dated 2012):

Tests used:
RV16 [1] = assay: RV16 viral RNA in BEAS2B cell lysates, TaqMan PCR; type: cell-based, rhinovirus; conditions: BEAS2B cells treated 24 h with different doses of IFN-λ1 before infection
Description: (§1) The human bronchial epithelial cell-line BEAS2B was infected with RV. TaqMan® PCR was used to identify IFN-λs mRNA expression and a bioassay was employed for corresponding protein production. BEAS2B cells were treated for 24 h with different doses of IFN-λ1 before infection with RV. Both TaqMan® PCR for viral RNA in cell lysates and viral titration of the BEAS2B supernatant were performed to investigate the antiviral effect.
(§2) The human bronchial epithelial cell-line BEAS2B and bronchial primary cells from asthmatics (6) and normal patients (5) were infected with RV16. TaqMan® PCR for IFN-λ mRNA expression was used. BEAS2B cells were treated with IFN-λ1 before infection with RV16. Both TaqMan® PCR for viral RNA in cell lysates and viral titration of the BEAS2B supernatant were performed to investigate the antiviral effect. TaqMan® PCR for viral RNA in cell lysates of primary cells was used also to test weather RV16 infectivity was different between primary cells from asthmatics and normals.

BEAS2B cells = assay: Induction of type I and type III interferons in BEAS2B cells; type: cell-based, human
RV16 [2] = assay: RV16 virus release, viral titration of BEAS2B supernatant; type: cell-based, rhinovirus; conditions: BEAS2B cells treated 24 h with different doses of IFN-λ1 before infection
Description: as §1, §2

rhinovirus [3] = assay: Virus induced cytopathic effect in HeLa cell titration assay; type: cell-based
rhinovirus [4] = conditions: general population volunteers, Higgins et al. 1986; cited from earlier work
natural colds = conditions: Sperber et al. 1989; cited from earlier work

Row | Molecule | rhinovirus 16 viral RNA in cell lysates (RV16 [1]) | rhinovirus 16 viral RNA in cell lysates (RV16 [1]; listed as IFNλ-1) | induction of IFNλ-1, IFNλ2-3 and interferon β (BEAS2B cells) | virus release in the supernatant by viral titration (RV16 [2]) | virus release in the supernatant by viral titration (RV16 [2]; listed as IFNλ-1) | virus induced cytopathic effect (rhinovirus [3]) | effect against experimental rhinovirus infection (rhinovirus [4]) | prophylaxis of natural colds (natural colds)
1 | IFN-λ1: type III interferon, Interferon λ-1 also known as IL-29, amino acid sequence SEQ ID NO: 5 (protein, listed as Homo sapiens) MAAAWTVVLVTLVLGLAVAGPVPTSKPTTTGKGCHIGRFKSLSPQELASFKKARDALEESLKLKNWSCSSPVFPGNWDLRLLQVRERPVALEAELALTLKVLEAAAGPALEDVLDQPLHTLHHILSQLQACIQPQPTAGPRPRGRLHHWLHRLQEAPKKESAGCLEASVTFNLFRLLTRDLKYVADGNLCLRTSTHPEST | dose-dependent anti-viral effect | reducing rhinovirus 16 viral RNA expression | induces itself as well as IFNλ2-3 and interferon β | dose-dependent anti-viral effect | reducing virus release | inhibited | – | –
2 | IFN-β-ser: recombinant interferon-beta serine, nasal drops tested in published prophylaxis trials (protein, UniProt P01574 22-187, looked up, variant C17S) Interferon beta: MSYNLLGFLQRSSNFQSQKLLWQLNGRLEYCLKDRMNFDIPEEIKQLQQFQKEDAALTIYEMLQNIFAIFRQDSSSTGWNETIVENLLANVYHQINHLKTVLEEKLEKEDFTRGKLMSSLHLKRYYGRILHYLKAKEYSHCAWTIVRVEILRNFYFINRLTGYLRN | – | – | – | – | – | – | promising beneficial effects | ineffective
